From patent publication US20250027068 come the findings set out here.

The chains are these.
B1: PRT-245 (protein)
chain: MVTSVWTKGVTPPANFTQGEDVFHAPYVANQGWYDITKLFNGKDDLLCGAATAGNMLHWWFDQNKDQIKRYLEEHPEKQKINFNGEQMFDVKEAIDTKNHQLDSKLFEYFLEKAFPNLSTKHLGVFPDHVIDMFINGYRLSLLNHGPTPVKEGSKDPRGGIFDAVFTRGDQSKLLTSRHDFKEKNLKEISDLIKKELTEGKALGLSHTYANGRINHVINLWGADFDSNGNLKAIAVTDSDSNASIGMKKYFVGVNSSGKVAISAKEIKEDNIGAQVLGLFTLSTGQDSWNQTN
B2: PRT-261 (protein)
chain: MVTSVWTKGVTPPTNFTYGEDVLHAPYVANQGWYDITKLFNGKDNLLCGAATAGNMLHWWFDQNKEQIENYLKKHPEKQKINFNGEQLFDVKEAIDTKDSQLDSKLFDYFKEKAFPNLSTKHLGVFPDHVIDMFINGYRLSLLNHGPTPVKRGSKDKRGGIFDAVFTRGVQSKLLTNRHDFKEKTLKEISDLIKQELTEGKALGISHTYANGRINHVINLWGADFDAEGNLEAIYVTDSDTNPSIGMKKYFVGVNSSGKVAISAKEIEEDNIGAQVLGLFTLSTGQDIWNQTN
B3: PRT-559 (protein)
chain: MANQEIRYSEETPKTITSIWTKGVTPPTDFIKTEDVLHAPYVANQGWYDITKTFNGKDDLLCGAATAGNMLHWWFDQNKEEIENYLKKHPEKQKINFNGEQMFDVKEAIDTKDSQTDSALFEYFKDKAFPYLSTKHLGVFPDHVIDMFINGYRLSLTNHGPTPVKDGTKDPRGGIFDAVFTRGDQTKLLTERHDFKEKTLNEISDLIKQELTEGKALGLSHTYANVRINHVINLWGADFNSEGNLEAIYVTDSDSNASIGMKKYYVGVNAAGKVAISAKEIEDDNIGAQVLGLFTLSTGQDIWEQTNLEHHHHHH
B4: PRT-576 (protein)
chain: MANQEIRYSKATPSTITSVWTKGVTPPENFIYNEDVLHAPYLANQGWYDITKTFNGKDDLLCGAATAGNMLHWWFDQNKEQIERYLKKHPEKQKINFNGEQMFDVKEAIDTKDSQTNSKLFEYFKDKAFPYLSTKHLGVFPDHVIDMFINGYRLSLTNHGPTPVKEQTKDPRGGIFDAVFTRGDQSKLLTSRHDFKEKTLNEISDLIKQELTEGKALGLSHTYANVRINHVINLWGADFNAEGNLEAIYVTDSDSNASIGMKKYYVGVNSAGKVAISAKEIEGDNIGAQVLGLFTLSTGQDIWQQTNLEHHHHHH
B5: PRT-253 (protein)
chain: MVTSVWTKGVTPPTNFTYGEDVLHAPYVANQGWYDITKTFNGKDDLLCGAATAGNMLHWWFDQNKEQIENYLKKHPEKQKINFNGEQMFDVKEAIDTKDSQLDSKLFEYFLEKAFPNLSTKHLGVFPDHVIDMFINGYRLSLLNHGPTPVKRGSKDPRGGIFDAVFTRGDQSKLLTNRHDFKEKTLKEISDLIKQELTEGKALGISHTYANVRINHVINLWGADFDAEGNLEAIYVTDSDSNKSIGMKKYFVGVNSDGKVAISAKEIEEDNIGAQVLGLFTLSTGQDIWNQTN
B6: PRT-269 (protein)
chain: B5 chain with N15D, T17I, V28K, N30G, F181L, E183N, Y235A, K243A, D257S
B7: PRT-595 (protein)
chain: MANQEIRYSEETPSTITSVWTKGVTPPTDFIQNEDVLHAPYIANQGWYDITKTFNGKDDLLCGAATAGNMLHWWFDQNKEQIENYLKKHPEKQKINFNGEQMFDVKEAIDTKDSQTDSALFEYFKDKAFPYLSTKHLGVFPDHVIDMFINGYRLSLTNHGPTPVKRGTKDPRGGIFDAVFTRGDQSKLLTSRHDFKEKNLNEISDLIKQELTEGKALGLSHTYANVRINHVINLWGADFNAEGNLEAIYVTDSDSNASIGMKKYYVGVNSAGKVAISAKEIEGDNIGAQVLGLFTLSTGQDIWNQTNLEHHHHHH
B8: PRT-566 (protein)
chain: B7 chain with D29Q, N199T
B9: PRT-582 (protein)
chain: MANQEIRYSKAKPKVITSVWTKGVTPPTQFTKNEDVFHAPYLANQGWYDITKTFNGKDDLLCGAATAGNMLHWWFDQNKEQIERYLKKHPEKQKINFNGEQMFDVKEAIDTKDSQTNSKLFNYFKDKAFPYLSTKHLGVFPDHVIDMFINGYRLSLTNHGPTPVKEQNKDPRGGIFDDVFTRGDQSKLLTSRHDFKEKTLKEISDLIKQELKEGKALGLSHTYANVRINHVINLWGADFDAEGNLVAIYVTDSDSNASIGMKKYYVGVNSAGKVAISAKEIEDDNIGAQVLGLFTLSTGKDIWEKTNLEHHHHHH
B10: PRT-533 (protein)
chain: MANQEIRYSSDSEWANKKVWVYGITPPEEGAWKYSTYYLPWKKEYGWYDCNKRNPTADGMMCWAATASNLLHWWIAQNKEYIDLYGDKYKGPDKINFNGEQMFDVKEYIDPLDKPQESDIFQCFIDKSFADLSTKHEAGYGDAGINWFIHGIIPSSPAHGPTPVKLDYPYNPAGYFKDVFPRGDGVVLLGNNGDFKELSKERFNETIKDALKNKKAIGLSIGPVNVRSSHVVTIWGAEFDENGDVSYIYMADNNDRWGVGCIRYQIVYEEGGTYTCYKTEIIPSDRPIPINRLVTLELGEEYWKQTNLEHHHHHH

Residue numbers refer to the chain shown, from its start.

The data set addresses pooled human IgG (human IgG1, 2, 3 and 4).
B1 gave an Enzyme Activity Endpoint Assay: Fab′2 of 423 ng/µL, an Enzyme Activity Endpoint Assay: Fc of 277 ng/µL, an Enzyme Activity Endpoint Assay: IgG of 46 ng/µL and an Enzyme Activity Endpoint Assay: scIgG of 204 ng/µL.
Turning to B2, the Enzyme Activity Endpoint Assay: Fab′2 is 0 ng/µL, the Enzyme Activity Endpoint Assay: Fc was 76 ng/µL, the Enzyme Activity Endpoint Assay: IgG worked out at 615 ng/µL and the Enzyme Activity Endpoint Assay: scIgG was 317 ng/µL.
The matching figures for B3: 657 ng/µL, 158 ng/µL, 0 ng/µL and 0 ng/µL.
The matching figures for B4: 903 ng/µL, 365 ng/µL, 0 ng/µL and 0 ng/µL.
With B5, the Enzyme Activity Endpoint Assay: Fab′2 came to 912 ng/µL, the Enzyme Activity Endpoint Assay: Fc was 334 ng/µL, the Enzyme Activity Endpoint Assay: IgG stood at 0 ng/µL and the Enzyme Activity Endpoint Assay: scIgG was 0 ng/µL.
B6: the Enzyme Activity Endpoint Assay: Fab′2 came out at 98 ng/µL, the Enzyme Activity Endpoint Assay: Fc came to 189 ng/µL, the Enzyme Activity Endpoint Assay: IgG is 86 ng/µL and the Enzyme Activity Endpoint Assay: scIgG stood at 592 ng/µL.
The matching figures for B7: 1040 ng/µL, 452 ng/µL, 0 ng/µL and 0 ng/µL.
B8 returned an Enzyme Activity Endpoint Assay: Fab′2 of 621 ng/µL, an Enzyme Activity Endpoint Assay: Fc of 366 ng/µL, an Enzyme Activity Endpoint Assay: IgG of 0 ng/µL and an Enzyme Activity Endpoint Assay: scIgG of 0 ng/µL.
On to B9, for which the Enzyme Activity Endpoint Assay: Fab′2 is 28 ng/µL, the Enzyme Activity Endpoint Assay: Fc was 183 ng/µL, the Enzyme Activity Endpoint Assay: IgG was found to be 329 ng/µL and the Enzyme Activity Endpoint Assay: scIgG was 754 ng/µL.
The protein B10 yielded an Enzyme Activity Endpoint Assay: Fab′2 of 0 ng/µL, an Enzyme Activity Endpoint Assay: Fc of 0 ng/µL, an Enzyme Activity Endpoint Assay: IgG of 1140 ng/µL and an Enzyme Activity Endpoint Assay: scIgG of 0 ng/µL.
